In the nanobody polyreactivity screen of Harvey et al. (2022):

assay: yeast display, Sf9 membrane polyspecificity reagent, FACS + sequencing; frameworks hold sequencing errors
Procedure, shortened: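 After 36–48 hours of galactose induction, yeast (Saccharomyces cerevisiae BJ5465) displaying a synthetic nanobody library were stained at 4 °C for 1 hour with 10% biotinylated, detergent-solubilized Sf9 membrane reagent. Streptavidin microbeads enriched the stained cells before FACS sorting into low and high (top ~1%) gates on anti-HA and streptavidin fluorescence. Each clone's polyreactivity label reflects its gate of origin.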

| Sequence | polyreactivity (PSR sort gate) |
| --- | --- |
| QVQLVESGGGLVQAGGSLRLSCAASGRTFHANAMGWYRQAPGKERELVAAISYRTGSTYYADSVKGRFTISRDNAKNTVYLQMNILKPDDTAVYYCDVDTRYGYGYWGQGTQVTVSS | high polyreactivity |
| QVQLVESGGGLVQAGGSLRLSFAASGINFRSYTMGWYRQAPGKERELVAGITRSGGSTYYADSVKGRFTISRDNAKNTVYLQMNSLKPEDSAVYYCAAKFRAGRSSYYWGHGTQVTVSS | high polyreactivity |
| QVRLVESGGGLVQAGGSLRLSCAASGRIFYRYAIGWYRQAPGKERELVAAISSSGGSTYYADSVKGRFTISRDNAKNTVYLQMNSLKPEDTAVYYCAADAGSINSGYDYWGQGTQVTVSS | low polyreactivity |
| QVQLVESGGGLVQAGGSLRLSCAASGSTFGRYALGWYRQAPGKEREFVAAISWSGGSTYYADSVKGRFTISRDNAKNTVYLQMNSLKPEDSAVYYCAASYIYQSSWYHRMYYWGQGTQVTVSS | high polyreactivity |
| QVQLVESGGGLVQAGGSLRLSCAASGFIFRRNAMGWYRQAPGKEREFVAAITWSGGSTYYADSVKGRFTISRDNAKYTVYLQMNSLKPEDTAVYYCAATYSQYWYTKYLNSYPGYDYWGQGTQVTVSS | low polyreactivity |
| QVQLVESGGGLVQAGGSLRLSCAASGSIFYPYAMGWYRKAPGKERELVASITINDGSTYYADSVKGRFTISRDNAKHTFYLPMNRLIQEDPAVYYCNVDPVPGFGSVYEYWGQGTQVTVSS | low polyreactivity |
| QVQLVESGGGLVQAGGSLRLSCAASGSNFTYYAMGWYRQAPGKEREFVAAINRSGGSTYYADSVKGRFTISRDNAKNTVYLQMNSLKPEDTAVYYCAARRGSGALRYNYWGQGTQVTVSS | high polyreactivity |
| QVQLVESGGGLVQAGGSLRLSCAASGIIFAYYAMGRSRQAPGKEMEFVAGISCSGSSTNYADSVKGRFTISRDNAKNTVYFQMNSLKPEDTAVYYCAARSRRYHRTKPKYDYWGQGTQVTVSS | high polyreactivity |
| QVQLVESGGGLVQAGGSLRLSCAASGYIFRFNAMGWYRQAPGKERELVAVNTSGARTYYADSVKGRFTISRDNAKNTVYLQMNSLKPEDTAVYYCNAGARRYLYDYWGQGTQVTVSS | low polyreactivity |
| QVQLVESGGGLVQAGGSLRLSCAASGSTFSTNAMGWYRQAPGKERELVAAISRSGGSTYYADSVKGRFTISRDNAKNTVYLQMNSLKPEDTAVYYCARYSYRGTNVRYDYWGQGTQVTVSS | high polyreactivity |
| QVQLVESGGGLVQAGGSLRLSCAASGRTFGTNTMGWYRPAPGKERELVAAISRSGVRTYYADSVKGRFTISRDNAKNTVYLQMKSLKPEDTAVYYCATDYKVHGFDYWGQGTQVTVSS | high polyreactivity |
| QVQLVESGLGLVQAGGSLRISCAASGLTIYYYAMGWYRQAPGKERELVAAITWRGGSTYYADSVKGRFTISRDNAKNTVYLQMNSLKPEDTAVYYCNKAYKYIRQQPYRTKRYDYWGQGTQGTVSS | low polyreactivity |
| QVQLVESGGGLVQAGGSLRLSCAASGNIVGSNAMGWYRQAPGKERELVAAISKSGGRTYYADSVKGRFTISRDNAKNTVYLQMNSLKPEDTAVYYCAAYDGYYEFDYWGQGTQVTVSS | low polyreactivity |
| QDQLVESRGGLVQAGGSLRLSCAASGFTFPSYAMGWYRQAPRKERELVAAITRSGGRTYYADSVKGRFTISRDNAKNTVYLQMNILKPEDTAVYYGAADRAAPRYDYWGQGTQVTVSS | high polyreactivity |
| QVQLVESGGGLVQAGGSLRLSCAASGRIFRTNAMGWYRQAHGKEWELVAAITRGGTTNYADSVKGRFTISRDNAKNTVYLQMNSLKPEDTAVYYCAVDQGYVVRLAWIYGYWGQGTQVTVSS | low polyreactivity |
| QVQLVESGAGLVQAGGSLSLSCAASVSILRFYAMGWYRQAPGKERELVAAISTRGGSTYYADSVKGRFTISRVNAKYTVYLQMNSLKPEDTAVYYCAKRWPQYTDYKPMYYWGQGTQLTVSS | high polyreactivity |
| QVQLVESGGGLVQAGGSLRLSCAASGSISKINAMGWYRQAPGKERELVAAINTGDSTYYADSVKGRFTISRDNAKNTVYLQMNSLKPEDTAVYYCAAEGSPTGYDYWGQGTQVTVSS | low polyreactivity |
| QVQLVESGGGLVQAGGSLRLSCAASGLIDSYYAMGWYRQAPGKERELVAVITSGGSTYYADSVKGRFTISRDNAKNTVYLQMNSLNPEDTAVYYCAARVRVSYNRYHGLYAVSRGDYWGQGTQVTVSS | high polyreactivity |
| QVQLVESGGGLVQAGGSRRLSCAASGRTFEGNAMGWYRQAPGKERELVAAITSGGRTNYADSVKGRFTISRDNAKNTVYLQMNSLKPEDTAVYYCAVDTRDRSTYFPGQAYDFWGQGTQVTVSS | low polyreactivity |
| QVQLVESGGGLVQAGGSLRLSCAASGRILPWYAMGWYRQAPGKERELVAGISSNGGSTYYADSVKGRFTISRDNAKNTVYLQMNSLKPEDSAVYYCAALFWYWRHYPSDYWGQGTQVTVSS | high polyreactivity |
| QVQLVESGGGLVQAGGSLRFSCAASGLTFSWNAMGWDRQAPGQERELVAAITSSGTSTYYADSVKGRFSISRDNAKITVYLQMHSLKPEDTAVYYGAAEGDYWGWEDDYWGQGTQVTVSS | high polyreactivity |
| QVQLVESGGGLVQAGGSLRLSCAASGSTFAGNTMGWSRQAPGKERELVAAITWNGGRTRYADSVKGRFTISRDNAKNTVYLQMNSLKPEDTAVYYCNAGPWYENMDYWGQGTQVTVSS | high polyreactivity |
| QVQLVESGGGLVQAGGSLRLSCAASGRILHRYVMGWNRQAPGKERELVAAISSGGSTTYADSVKGRFTISRDNAKNTVYLQMNSLKPEATAVYYCAKYSFWRTSRMDFWGQGTQVTVSS | low polyreactivity |
| QVQLVESGGGLVQAGGSLRLSCAASGSIFLYNAMGWYRQAPGKERELVADITSAGRTYYADSVKGRFTISRDNAKNTVYLQMNSLKPEDTAVYYCNKDYHYHFSWYGYWGQGTQVTVSS | low polyreactivity |
| QVQLVESGGGLVQAGGSLRVSCAASGRTIRWNAMGWSRQAPGKEREMVAAITSRGGSTYYADSVKGRFTISRDNAKNTVYLQMNSLKPEDTAVYYCAKQPKPPPVTGYDYWGQGTQVTVSS | high polyreactivity |
| QVQLVESGGGLVQAGGSLRLSCAASGSTFSGYAMGWYRQAPGKERELVAAISTDDTYYADSVKGRFTISRDNPKNTVYLQKNSLKPEDTAVYYCAADYLGYYGLEEHWGQGTQVTVSS | high polyreactivity |
| QVQLVESGGGLVQAGGSLRLSCAASGRIFWYYSMGRYRQAPATEREVVATITTRSGSTYYADSVKGRFTISRDNAKNTVYLQMNSMKPEDTAGYYCAADWPLLYTGSHSQTKYGYWGQGTQVTVSS | high polyreactivity |
| QVQLVESGGGLVQAGGSLRLSCAASGSTYHYAMGWYRQAPGKERELVASITWRGDTTYYADSVKGRFTISRDNAKNTVYLQMNSLKPEDTAVYYGATVPYSPPSAGPEYDYWGQGTQVTVSS | high polyreactivity |
| QVQLVESGGCLVQAGGSLRLSCAASGLIFYRYAMGWYRQAPGKERELVAAISWSGGTTYYADSVKGRFTISRDNAKNSVYLQMNSLKPEDTAVYYCAADAVYYHFDYWGQGTQVTVSS | high polyreactivity |
| QVQLVESGGGLVQAGGSLRLSCAASGRNFTSNAMGWYRQAPGKERELVAAITQSGGSTYYADSVKGRFTISRDNAKNTVYLQMNSLKPVDTAVYYCNAETTGRTEYNYWGQGTQVTVSS | low polyreactivity |
